Two molecules from paper PMC3391258 (PLoS ONE, 2012) can be followed below.

Numbering of substitutions follows the chain as printed. Names and notes keep the numbering of the source.

This assay addresses T1, TolC with a hexahistidine-tag at the C-terminus (E. coli, UniProt P02930 23-493).
T1 construct: also called TolC-His; hexa-His-tagged wild-type TolC; not shown: His6, C-terminal, kept
T1 sequence (looked up): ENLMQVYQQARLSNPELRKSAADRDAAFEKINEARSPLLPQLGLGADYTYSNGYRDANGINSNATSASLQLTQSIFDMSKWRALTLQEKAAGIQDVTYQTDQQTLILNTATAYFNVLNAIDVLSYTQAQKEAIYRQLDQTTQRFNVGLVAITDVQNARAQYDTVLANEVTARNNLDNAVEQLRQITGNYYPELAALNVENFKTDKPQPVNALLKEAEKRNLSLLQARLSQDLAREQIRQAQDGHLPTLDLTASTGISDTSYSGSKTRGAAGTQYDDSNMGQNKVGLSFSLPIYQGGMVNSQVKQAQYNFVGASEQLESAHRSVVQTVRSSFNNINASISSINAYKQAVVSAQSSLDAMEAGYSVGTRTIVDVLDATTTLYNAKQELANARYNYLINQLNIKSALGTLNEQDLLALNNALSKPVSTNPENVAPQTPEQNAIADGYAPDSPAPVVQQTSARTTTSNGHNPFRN
In words: cross-linking. As to conditions: partners not purified.

B1: HlyD-R186A tagged with c-Myc at the C-terminus (natural protein)
chain: MKTWLMGFSEFLLRYKLVWSETWKIRKQLDTPVREKDENEFLPAHLELIETPVSRRPRLVAYFIMGFLVIAFILSVLGQVEIVATANGKLTLSGRSKEIKPIENSIVKEIIVKEGESVRKGDVLLKLTALGAEADTLKTQSSLLQARLEQIRYQILSRSIELNKLPELKLPDEPYFQNVSEEEVLALTSLIKEQFSTWQNQKYQKELNLDKKRAERLTILARINRYENVSRVEKSRLDDFRSLLHKQAIAKHAVLEQENKYVEAANELRVYKSQLEQIESEILSAKEEYQLVTQLFKNEILDKLRQTTDSIELLTLELEKNEERQQASVIRAPVSGKVQQLKVHTEGGVVTTAETLMVIVPEDDTLEVTALVQNKDIGFINVGQNAIIKVEAFPYTRYGYLVGKVKNINLDAIEDQKLGLVFNVIVSVEENDLSTGNKHIPLSSGMAVTAEIKTGMRSVISYLLSPLEESVTESLHER
notes: also called HlyD-R186A-C-myc
B1: the “crosslinking to TolC, percent of that of wild-type HlyD” value was 10 % of wild-type HlyD.

B2: HlyD-T197A tagged with c-Myc at the C-terminus (natural protein)
chain: B1 chain with A186R, T197A
notes: also called HlyD-T197A-C-myc
Consider B2, for which the “crosslinking to TolC, percent of that of wild-type HlyD” value is 48 % of wild-type HlyD.
